Assay results as given in the supplement of paper PMC9112550, “Optimization of the antimicrobial peptide Bac7 by deep mutational scanning” (BMC Biology, 2022).

The sequences below were run on Escherichia coli TOP10 (assay: shrunken log2 fold change of peptide-encoding DNA abundance (4.5 h post-induction vs induction); higher = less antimicrobial activity (less host growth inhibition)). Details: time post-induction: 4.5 h; library: site-saturation at positions 5, 18, 19, 20.
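Note: peptides expressed intracellularly from a pBAD plasmid library in pooled LB shake-flask culture, induced with 0.3% L-arabinose, DNA abundance read by NGS, three biological replicates, DESeq2 with apeglm shrinkage.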

| Sequence | shrunken log2 fold change |
| --- | --- |
| RRIRERPPRLPRPRPRPVQFPRP | -0.0474 |
| RRIRERPPRLPRPRPRPVQLPRP | -0.329 |
| RRIRERPPRLPRPRPRPVRGPRP | 0.543 |
| RRIRERPPRLPRPRPRPVRPPRP | 0.849 |
| RRIRERPPRLPRPRPRPVRTPRP | 0.496 |
| RRIRERPPRLPRPRPRPVSPPRP | -0.33 |
| RRIRERPPRLPRPRPRPVTCPRP | -0.204 |
| RRIRERPPRLPRPRPRPVWHPRP | -0.154 |
| RRIRERPPRLPRPRPRPVWMPRP | -0.0846 |
| RRIRERPPRLPRPRPRPVYHPRP | -1.35 |
| RRIRERPPRLPRPRPRPVYTPRP | -0.146 |
| RRIRERPPRLPRPRPRPWCNPRP | -0.112 |
| RRIRERPPRLPRPRPRPWDHPRP | -0.204 |
| RRIRERPPRLPRPRPRPWDMPRP | -0.212 |
| RRIRERPPRLPRPRPRPWECPRP | -0.0135 |
| RRIRERPPRLPRPRPRPWFEPRP | -0.0941 |
| RRIRERPPRLPRPRPRPWFTPRP | -0.187 |
| RRIRERPPRLPRPRPRPWHLPRP | -0.349 |
| RRIRERPPRLPRPRPRPWLHPRP | -0.262 |
| RRIRERPPRLPRPRPRPWLWPRP | 0.239 |
| RRIRERPPRLPRPRPRPWLYPRP | 0.102 |
| RRIRERPPRLPRPRPRPWMNPRP | -0.0137 |
| RRIRERPPRLPRPRPRPWNNPRP | -0.653 |
| RRIRERPPRLPRPRPRPWPFPRP | -0.0819 |
| RRIRERPPRLPRPRPRPWPMPRP | 0.00819 |

| Sequence | shrunken log2 fold change |
| --- | --- |
| RRIRERPPRLPRPRPRPWPRPRP | 0.223 |
| RRIRERPPRLPRPRPRPWQVPRP | 0.0371 |
| RRIRERPPRLPRPRPRPWTEPRP | 0.027 |
| RRIRERPPRLPRPRPRPWVEPRP | 0.0665 |
| RRIRERPPRLPRPRPRPYASPRP | -0.303 |
| RRIRERPPRLPRPRPRPYAYPRP | -0.000687 |
| RRIRERPPRLPRPRPRPYCPPRP | -1.59 |
| RRIRERPPRLPRPRPRPYCTPRP | -1.13 |
| RRIRERPPRLPRPRPRPYEPPRP | 0.029 |
| RRIRERPPRLPRPRPRPYFNPRP | -0.583 |
| RRIRERPPRLPRPRPRPYHAPRP | 0.00489 |
| RRIRERPPRLPRPRPRPYHHPRP | -1.56 |
| RRIRERPPRLPRPRPRPYILPRP | -2.27 |
| RRIRERPPRLPRPRPRPYIQPRP | -0.184 |
| RRIRERPPRLPRPRPRPYKYPRP | 0.686 |
| RRIRERPPRLPRPRPRPYLWPRP | -0.431 |
| RRIRERPPRLPRPRPRPYMQPRP | -0.326 |
| RRIRERPPRLPRPRPRPYPMPRP | -0.172 |
| RRIRERPPRLPRPRPRPYQAPRP | 0.019 |
| RRIRERPPRLPRPRPRPYQQPRP | -0.228 |
| RRIRERPPRLPRPRPRPYTPPRP | -1 |
| RRIRERPPRLPRPRPRPYTYPRP | -0.0595 |
| RRIRERPPRLPRPRPRPYVQPRP | -0.0184 |
| RRIRERPPRLPRPRPRPYVSPRP | -0.672 |
| RRIRERPPRLPRPRPRPYWMPRP | -0.438 |

| Sequence | shrunken log2 fold change |
| --- | --- |
| RRIRERPPRLPRPRPRPYYVPRP | -0.559 |
| RRIRFRPPRLPRPRPRPADYPRP | -0.207 |
| RRIRFRPPRLPRPRPRPAFAPRP | 0.33 |
| RRIRFRPPRLPRPRPRPAFKPRP | -0.347 |
| RRIRFRPPRLPRPRPRPAFRPRP | 0.132 |
| RRIRFRPPRLPRPRPRPAFYPRP | -0.249 |
| RRIRFRPPRLPRPRPRPAIYPRP | -0.999 |
| RRIRFRPPRLPRPRPRPAKAPRP | 0.26 |
| RRIRFRPPRLPRPRPRPAKLPRP | -0.263 |
| RRIRFRPPRLPRPRPRPAKTPRP | -0.0138 |
| RRIRFRPPRLPRPRPRPALQPRP | -0.142 |
| RRIRFRPPRLPRPRPRPAMKPRP | -0.345 |
| RRIRFRPPRLPRPRPRPAMLPRP | 0.0665 |
| RRIRFRPPRLPRPRPRPAMYPRP | -0.246 |
| RRIRFRPPRLPRPRPRPANMPRP | 0.321 |
| RRIRFRPPRLPRPRPRPAPEPRP | 0.81 |
| RRIRFRPPRLPRPRPRPAQLPRP | 0.36 |
| RRIRFRPPRLPRPRPRPAREPRP | 0.612 |
| RRIRFRPPRLPRPRPRPASHPRP | 0.0492 |
| RRIRFRPPRLPRPRPRPASRPRP | 0.128 |
| RRIRFRPPRLPRPRPRPAWEPRP | 0.62 |
| RRIRFRPPRLPRPRPRPAYLPRP | -0.649 |
| RRIRFRPPRLPRPRPRPCAEPRP | 0.111 |
| RRIRFRPPRLPRPRPRPCAPPRP | -0.121 |
| RRIRFRPPRLPRPRPRPCCVPRP | -0.189 |

| Sequence | shrunken log2 fold change |
| --- | --- |
| RRIRFRPPRLPRPRPRPCDDPRP | -0.00233 |
| RRIRFRPPRLPRPRPRPCDEPRP | 0.112 |
| RRIRFRPPRLPRPRPRPCDFPRP | -0.255 |
| RRIRFRPPRLPRPRPRPCDPPRP | -0.0886 |
| RRIRFRPPRLPRPRPRPCDQPRP | -0.0178 |
| RRIRFRPPRLPRPRPRPCEAPRP | 0.122 |
| RRIRFRPPRLPRPRPRPCEIPRP | -0.348 |
| RRIRFRPPRLPRPRPRPCEVPRP | -0.0179 |
| RRIRFRPPRLPRPRPRPCFIPRP | -0.564 |
| RRIRFRPPRLPRPRPRPCHIPRP | -0.11 |
| RRIRFRPPRLPRPRPRPCHYPRP | -0.211 |
| RRIRFRPPRLPRPRPRPCIDPRP | 0.255 |
| RRIRFRPPRLPRPRPRPCILPRP | -0.0567 |
| RRIRFRPPRLPRPRPRPCIVPRP | -0.637 |
| RRIRFRPPRLPRPRPRPCKAPRP | -0.0248 |
| RRIRFRPPRLPRPRPRPCPEPRP | -0.2 |
| RRIRFRPPRLPRPRPRPCPPPRP | -0.131 |
| RRIRFRPPRLPRPRPRPCPVPRP | -0.618 |
| RRIRFRPPRLPRPRPRPCQIPRP | -0.0143 |
| RRIRFRPPRLPRPRPRPCSNPRP | -0.0316 |
| RRIRFRPPRLPRPRPRPCSWPRP | -0.349 |
| RRIRFRPPRLPRPRPRPCTPPRP | -0.158 |
| RRIRFRPPRLPRPRPRPCTSPRP | -0.0377 |
| RRIRFRPPRLPRPRPRPCVFPRP | -0.0936 |
| RRIRFRPPRLPRPRPRPCVGPRP | -0.433 |

| Sequence | shrunken log2 fold change |
| --- | --- |
| RRIRFRPPRLPRPRPRPCVTPRP | -0.492 |
| RRIRFRPPRLPRPRPRPCWDPRP | -0.0535 |
| RRIRFRPPRLPRPRPRPDAAPRP | 0.681 |
| RRIRFRPPRLPRPRPRPDADPRP | 0.386 |
| RRIRFRPPRLPRPRPRPDAKPRP | 0.417 |
| RRIRFRPPRLPRPRPRPDATPRP | 0.486 |
| RRIRFRPPRLPRPRPRPDCCPRP | -0.0954 |
| RRIRFRPPRLPRPRPRPDDLPRP | 0.00489 |
| RRIRFRPPRLPRPRPRPDEEPRP | -0.00623 |
| RRIRFRPPRLPRPRPRPDEVPRP | -0.00705 |
| RRIRFRPPRLPRPRPRPDFLPRP | -0.453 |
| RRIRFRPPRLPRPRPRPDFRPRP | 0.00564 |
| RRIRFRPPRLPRPRPRPDGNPRP | -0.174 |
| RRIRFRPPRLPRPRPRPDGPPRP | 0.0689 |
| RRIRFRPPRLPRPRPRPDGQPRP | -0.0411 |
| RRIRFRPPRLPRPRPRPDHRPRP | 0.0119 |
| RRIRFRPPRLPRPRPRPDKTPRP | -0.0318 |
| RRIRFRPPRLPRPRPRPDMRPRP | -0.000242 |
| RRIRFRPPRLPRPRPRPDNNPRP | -0.4 |
| RRIRFRPPRLPRPRPRPDRIPRP | 0.0156 |
| RRIRFRPPRLPRPRPRPDRTPRP | -0.0783 |
| RRIRFRPPRLPRPRPRPDTKPRP | -0.123 |
| RRIRFRPPRLPRPRPRPDTPPRP | 1.5 |
| RRIRFRPPRLPRPRPRPDWWPRP | -0.0896 |
| RRIRFRPPRLPRPRPRPDYGPRP | -0.238 |

| Sequence | shrunken log2 fold change |
| --- | --- |
| RRIRFRPPRLPRPRPRPDYNPRP | -0.422 |
| RRIRFRPPRLPRPRPRPDYQPRP | -0.268 |
| RRIRFRPPRLPRPRPRPDYSPRP | -0.458 |
| RRIRFRPPRLPRPRPRPEASPRP | 0.0218 |
| RRIRFRPPRLPRPRPRPECHPRP | 0.0585 |
| RRIRFRPPRLPRPRPRPEDMPRP | 0.000714 |
| RRIRFRPPRLPRPRPRPEDPPRP | 0.379 |
| RRIRFRPPRLPRPRPRPEECPRP | -0.0175 |
| RRIRFRPPRLPRPRPRPEEKPRP | -0.0254 |
| RRIRFRPPRLPRPRPRPEKLPRP | -0.0722 |
| RRIRFRPPRLPRPRPRPELAPRP | 0.0952 |
| RRIRFRPPRLPRPRPRPEMAPRP | 0.635 |
| RRIRFRPPRLPRPRPRPEMVPRP | -0.143 |
| RRIRFRPPRLPRPRPRPEPTPRP | 0.805 |
| RRIRFRPPRLPRPRPRPEPVPRP | 0.326 |
| RRIRFRPPRLPRPRPRPEQDPRP | 1.57 |
| RRIRFRPPRLPRPRPRPEQYPRP | -0.234 |
| RRIRFRPPRLPRPRPRPERRPRP | 0.166 |
| RRIRFRPPRLPRPRPRPFAKPRP | -0.026 |
| RRIRFRPPRLPRPRPRPFCLPRP | -0.467 |
| RRIRFRPPRLPRPRPRPFEMPRP | -0.0734 |
| RRIRFRPPRLPRPRPRPFENPRP | -0.0822 |
| RRIRFRPPRLPRPRPRPFEWPRP | -0.0458 |
| RRIRFRPPRLPRPRPRPFGMPRP | -0.223 |
| RRIRFRPPRLPRPRPRPFHMPRP | -0.116 |
